Reference: article PMC9924070 (2021)

How the values were obtained:
Test in all cases: BLI
[1] = molecular target: T1, monomeric human Fc-fused SARS-CoV-2_RBD-SD1 (SARS-CoV-2)
[2] = molecular target: T1, monomeric human Fc-fused …; remark: listed apart in the source
[3] = molecular target: T2, Mouse IgG1 Fc-fused SARS-CoV-2 RBD (SARS-CoV-2, UniProt P0DTC2)
[4] = molecular target: T2, Mouse IgG1 Fc-fused SARS-CoV-2 RBD; remark: listed apart in the source

B1: humVHH (VHH)
VHH: EVQLVESGGGLVQPGGSLRLSCAASGRTFSEYAMGWFRQAPGKEREFVATISWSGGSTYYTDSVKGRFTISRDNAKNTVYLQMNSLRPEDTAVYYCAAAGLGTVVSEWDYDYDYWGQGTLVTVSS
Kd [1]: 63 nM
koff [2]: 0.088 s⁻¹

B2: humVHH_S56A (VHH)
VHH: EVQLVESGGGLVQPGGSLRLSCAASGRTFSEYAMGWFRQAPGKEREFVATISWSGGATYYTDSVKGRFTISRDNAKNTVYLQMNSLRPEDTAVYYCAAAGLGTVVSEWDYDYDYWGQGTLVTVSS
Kd [1]: 8.3 nM
koff [2]: 0.023 s⁻¹

B3: humVHH_S56A/LALAPG-Fc (Fc fusion)
chain: EVQLVESGGGLVQPGGSLRLSCAASGRTFSEYAMGWFRQAPGKEREFVATISWSGGATYYTDSVKGRFTISRDNAKNTVYLQMNSLRPEDTAVYYCAAAGLGTVVSEWDYDYDYWGQGTLVTVSS
koff [3]: 8.16e-05 s⁻¹
Kd [4]: 0.0477 nM
